Laboratory results taken from patent publication US20210238569A1.

Assays:
[1] = target: protease-activated RNA polymerase (PA-RNAP) including the HCV protease substrate (UniProt P00806)
[2] = tested on: TEV protease wild-type substrate sequence ENLYFQSA
[3] = target: protease-activated RNA polymerase (PA-RNAP) including the TEV protease substrate (UniProt P00806)
[4] = tested on: target substrate sequence ENLYFESA

Sequence of protease-activated RNA polymerase (PA-RNAP) including the TEV protease substrate (P00806 whole entry, looked up): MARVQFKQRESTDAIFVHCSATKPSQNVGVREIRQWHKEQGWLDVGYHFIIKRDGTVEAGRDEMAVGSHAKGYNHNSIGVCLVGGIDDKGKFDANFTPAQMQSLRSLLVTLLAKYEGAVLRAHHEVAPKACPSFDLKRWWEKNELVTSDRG
Sequence of protease-activated RNA polymerase (PA-RNAP) including the HCV protease substrate (P00806 whole entry, looked up): as above

Substance | Western blot of PA-RNAP sensor activation (proteolysis) [1] | cleavage of substrate sequence [2] | Western blot of PA-RNAP sensor activation (proteolysis) [3] | cleavage of substrate sequence [4]
hepatitis C virus (HCV) protease, constitutively active construct that includes the NS4a cofactor peptide | the PA-RNAP sensor is proteolyzed to a smaller band of anticipated molecular weight only in the presence of a cognate protease that can cleave the peptide sequence in each PA-RNAP linker |  |  | 
tobacco etch virus (TEV) protease, expressed as MBP-TEV fusion protein |  | Wild-type TEV protease cleaves the substrate sequence ENLYFQSA (SEQ ID NO: 24) | the PA-RNAP sensor is proteolyzed to a smaller band of anticipated molecular weight only in the presence of a cognate protease that can cleave the peptide sequence in each PA-RNAP linker | does not cleave the target substrate sequence ENLYFESA (SEQ ID NO: 25)
